Measured values from US10864252B2, “Anti-SSX-2 T cell receptors and related materials and methods of use” (The United States of America, as represented by the …, priority 2010, dated 2020).

Assays:
SK MEL37 = assay: IFN-γ release, co-culture with SK MEL37 melanoma; format: cell-based
Description: (§1) SSX-2 TCR-transduced PBLs were co-cultured with various tumor cell lines. […] FIGS. 4A and 4B, FIG. 11, and Tables 3 and 4 show additional results of PBLs from human donors that were transduced with the SSX-2 TCR of Example 2 when these PBLs were co-cultured with various tumor cells. PBLs that were untransduced (UT) or transduced with a vector comprising SEQ ID NO: 27 (SSX-2 TCR), SEQ ID NO: 29 (codon-optimized SSX-2 TCR), or SEQ ID NO: 30 (codon-optimized SSX-2 TCR including mouse constant region) were co-cultured with various tumor cell lines. Tables 5 and 6 show the resulting interferon-γ levels (pg/ml) measured with respect to PBL from two different donors.

938 mel = assay: IFN-γ release, co-culture with 938; format: cell-based; conditions: co-cultured with 938 mel
Description: as §1

[1] = system: SSX-2+/HLA-A2+ target cells; assay: Percent lysis of target cells; format: cell-based; conditions: FIGS. 7A-D and 8A-D, various E:T ratios
COS-A2 SSX2 = assay: IFN-γ release, co-culture with COS-A2 SSX2; format: cell-based; conditions: co-cultured with COS-A2-SSX2
Description: as §1

COS-A2-SSX2 cells = assay: CD137 (4-1BB) upregulation after co-culture with COS-A2-SSX2 cells; format: cell-based; conditions: FACS after co-culture with COS-A2-SSX2 cells
SKOV3 Ovarian = assay: IFN-γ release, co-culture with SKOV3 ovarian; format: cell-based; conditions: co-cultured with SKOV3 Ovarian
Description: as §1

COS-A2 = assay: IFN-γ release, TCR-transduced PBL co-cultured with COS-A2; format: cell-based; conditions: co-cultured with Cos-A2
Description: as §1

1300 mel = assay: IFN-γ release, co-culture with 1300 mel; format: cell-based; conditions: co-cultured with 1300 mel
Description: (§2) PBLs that were untransduced (UT) or transduced with a vector comprising SEQ ID NO: 27 (SSX-2 TCR), SEQ ID NO: 29 (codon-optimized SSX-2 TCR), or SEQ ID NO: 30 (codon-optimized SSX-2 TCR including mouse constant region) were co-cultured with various tumor cell lines. Tables 5 and 6 show the resulting interferon-γ levels (pg/ml) measured with respect to PBL from two different donors.

K562-A2-Erythroleukemia = assay: IFN-γ release, co-culture with K562-A2 erythroleukemia; format: cell-based; conditions: co-cultured with K562-A2-Erythroleukemia
Description: as §2

293-A2 SSX2 = assay: IFN-γ release, co-culture with 293-A2 SSX2; format: cell-based; conditions: co-cultured with 293-A2-SSX2
Description: as §1

COS-A2-SSX-2 cells = assay: Proliferation ([3H]-thymidine) on co-culture with COS-A2-SSX-2 cells; format: cell-based; conditions: PBL from Donor 1 or Donor 2; FIGS. 6A, 6B
Protocol: PBLs from Donor 1 or Donor 2 that were untransduced (UT) or transduced with a vector comprising SEQ ID NO: 27 (SSX-2 TCR), SEQ ID NO: 29 (codon-optimized SSX-2 TCR), or SEQ ID NO: 30 (codon-optimized SSX-2 TCR including mouse constant region) were co-cultured with COS-A2-SSX-2 cells. Proliferation in terms of [^3H]-thymidine incorporation (CPM) was measured and is shown in FIG. 6A (Donor 1) and 6B (Donor 2).

K562 = assay: IFN-γ release, co-culture with K562; format: cell-based; conditions: co-cultured with K562
Description: as §2

624 mel = assay: IFN-γ release, co-culture with 624 melanoma; format: cell-based; conditions: co-cultured with 624 mel
Description: as §1

[2] = system: SSX2+/HLA-A2+ target cells; assay: Proliferation ([3H]-thymidine) on co-culture with tumor cells; format: cell-based; conditions: 1300 mel, 624 mel, 888 mel, SK mel 37 or COS-A2-SSX-2 cells; FIGS. 9A-9E
Description: In another experiment, PBLs transduced as described in this example were co-cultured with 1300 mel cells, 624 mel cells, 888 mel cells, SK mel 37 cells, or COS-A2-SSX-2 cells.

Lau 149 mel = assay: IFN-γ release, co-culture with Lau 149 mel; format: cell-based; conditions: co-cultured with Lau 149 mel
Description: as §2

[3] = IFN-γ release, transduced PBL without target cells (medium / T cell alone); format: cell-based, human; conditions: T cell alone
Description: as §1

293-A2 = assay: IFN-γ release, co-culture with 293-A2; format: cell-based; conditions: co-cultured with 293-A2
Description: as §1

938-A2 mel = assay: IFN-γ release, co-culture with 938-A2 melanoma; format: cell-based; conditions: co-cultured with 938-A2 mel
Description: as §1

T331A mel = assay: IFN-γ release, co-culture with T331A; format: cell-based; conditions: co-cultured with T331A mel
Description: as §1

U251 Glioma = assay: IFN-γ release, co-culture with U251 glioma; format: cell-based; conditions: co-cultured with U251 Glioma
Description: as §1

[4] = Table 5 donor, co-cultured with Skmel 37 mel
[5] = Table 6 donor, co-cultured with Skmel 37

| Molecule | interferon-γ levels (SK MEL37; [4]) | interferon-γ levels (SK MEL37; [5]) | interferon-γ levels (938 mel; Table 5 donor) | interferon-γ levels (938 mel; Table 6 donor) | lytic activity (percent lysis) [1] | interferon-γ levels (COS-A2 SSX2; Table 5 donor) | interferon-γ levels (COS-A2 SSX2; Table 6 donor) | activation marker CD137 (4-1BB) (COS-A2-SSX2 cells) | interferon-γ levels (SKOV3 Ovarian; Table 5 donor) | interferon-γ levels (SKOV3 Ovarian; Table 6 donor) | interferon-γ levels (COS-A2; Table 5 donor) | interferon-γ levels (COS-A2; Table 6 donor) | interferon-γ levels (1300 mel; Table 5 donor) | interferon-γ levels (1300 mel; Table 6 donor) | interferon-γ levels (K562-A2-Erythroleukemia; Table 5 donor) | interferon-γ levels (K562-A2-Erythroleukemia; Table 6 donor) | interferon-γ levels (293-A2 SSX2; Table 5 donor) | interferon-γ levels (293-A2 SSX2; Table 6 donor) | proliferation ([3H]-thymidine incorporation) (COS-A2-SSX-2 cells) | interferon-γ levels (K562; Table 5 donor) | further results |
| --- | --- | --- | --- | --- | --- | --- | --- | --- | --- | --- | --- | --- | --- | --- | --- | --- | --- | --- | --- | --- | --- |
| SSX2-TCR-Co Op: codon-optimized anti-SSX-2 TCR alpha and beta chains encoded by SEQ ID NO: 29, tested as transduced human PBLs (protein) MALSSLLKVVTASLWLGPGIAQKITQTQPGMFVQEKEAVTLDCTYDTSDPSYGLFWYKQPSSGEMIFLIYQGSYDQQNATEGRYSLNFQKARKSANLVISASQLGDSAMYFCAMTSGFGNEKLTFGTGTRLTIIPNIQNPDPAVYQLRDSKSSDKSVCLFTDFDSQTNVSQSKDSDVYITDKTVLDMRSMDFKSNSAVAWSNKSDFACANAFNNSIIPEDTFFPSPESSCDVKLVEKSFETDTNLNFQNLSVIGFRILLLKVAGFNLLMTLRLWSSRAKRSGSGATNFSLLKQAGDVEENPGPMGPGLLHWMALCLLGTGHGDAMVIQNPRYQVTQFGKPVTLSCSQTLNHNVMYWYQQKSSQAPKLLFHYYDKDFNNEADTPDNFQSRRPNTSFCFLDIRSPGLGDAAMYLCATSRGQGGQPQHFGDGTRLSILEDLNKVFPPEVAVFEPSEAEISHTQKATLVCLATGFFPDHVELSWWVNGKEVHSGVSTDPQPLKEQPALNDSRYCLSSRLRVSATFWQNPRNHFRCQVQFYGLSENDEWTQDRAKPVTQIVSAEAWGRADCGFTSVSYQQGVLSATILYEILLGKATLYAVLVSALVLMAMVKRKDF | 8869 pg/mL | 11445 pg/mL | 890 pg/mL | 768 pg/mL | specific lytic activity against SSX-2^+/HLA-A2^+ target cells | 64142 pg/mL | 138324 pg/mL | upregulated | 2527 pg/mL | 22509 pg/mL | 2338 pg/mL | 601 pg/mL | 2596 pg/mL | 3052 pg/mL | 21325 pg/mL | 13610 pg/mL | 37522 pg/mL | 49112 pg/mL | proliferate in response to co-culture with COS-A2-SSX-2 cells | 1714 pg/mL | interferon-γ levels (K562; Table 6 donor): 2784 pg/mL; interferon-γ levels (624 mel; Table 5 donor): 37547 pg/mL; interferon-γ levels (624 mel; Table 6 donor): 47059 pg/mL; proliferation ([3H]-thymidine incorporation) [2]: proliferate in response to co-culture with SSX2+/HLA-A2+ target cells; interferon-γ levels (Lau 149 mel; Table 5 donor): 193 pg/mL; interferon-γ levels (Lau 149 mel; Table 6 donor): 120 pg/mL; interferon-γ levels ([3]; Table 5 donor): 164 pg/mL; interferon-γ levels ([3]; Table 6 donor): 290 pg/mL; interferon-γ levels (293-A2; Table 5 donor): 711 pg/mL; interferon-γ levels (293-A2; Table 6 donor): 1067 pg/mL; interferon-γ levels (938-A2 mel; Table 5 donor): 46304 pg/mL; interferon-γ levels (938-A2 mel; Table 6 donor): 51173 pg/mL; interferon-γ levels (T331A mel; Table 5 donor): 30 pg/mL; interferon-γ levels (T331A mel; Table 6 donor): 30 pg/mL; interferon-γ levels (U251 Glioma; Table 5 donor): 19223 pg/mL; interferon-γ levels (U251 Glioma; Table 6 donor): 21418 pg/mL |
| SSX2-TCR-MCR: codon-optimized human/mouse chimeric anti-SSX-2 TCR with mouse constant region, encoded by SEQ ID NO: 30, tested as transduced human PBLs (protein) MALSSLLKVVTASLWLGPGIAQKITQTQPGMFVQEKEAVTLDCTYDTSDPSYGLFWYKQPSSGEMIFLIYQGSYDQQNATEGRYSLNFQKARKSANLVISASQLGDSAMYFCAMTSGFGNEKLTFGTGTRLTIIPNDIQNPEPAVYQLKDPRSQDSTLCLFTDFDSQINVPKTMESGTFITDKTVLDMKAMDSKSNGAIAWSNQTSFTCQDIFKETNATYPSSDVPCDATLTEKSFETDMNLNFQNLSVMGLRILLLKVAGFNLLMTLRLWSSRAKRSGSGATNFSLLKQAGDVEENPGPMGPGLLHWMALCLLGTGHGDAMVIQNPRYQVTQFGKPVTLSCSQTLNHNVMYWYQQKSSQAPKLLFHYYDKDFNNEADTPDNFQSRRPNTSFCFLDIRSPGLGDAAMYLCATSRGQGGQPQHFGDGTRLSILEDLRNVTPPKVSLFEPSKAEIANKQKATLVCLARGFFPDHVELSWWVNGKEVHSGVSTDPQAYKESNYSYCLSSRLRVSATFWHNPRNHFRCQVQFHGLSEEDKWPEGSPKPVTQNISAEAWGRACGITSSYQQGVLSATILYEILLGKATLYAVLVSTLVVMAMVKRKNS | 10401 pg/mL | 10630 pg/mL | 1122 pg/mL | 932 pg/mL | specific lytic activity against SSX-2^+/HLA-A2^+ target cells | 56893 pg/mL | 164314 pg/mL | upregulated | 2221 pg/mL | 9857 pg/mL | 2827 pg/mL | 553 pg/mL | 2715 pg/mL | 3460 pg/mL | 17437 pg/mL | 13555 pg/mL | 37258 pg/mL | 47273 pg/mL | proliferate in response to co-culture with COS-A2-SSX-2 cells | 2752 pg/mL | interferon-γ levels (K562; Table 6 donor): 3328 pg/mL; interferon-γ levels (624 mel; Table 5 donor): 46999 pg/mL; interferon-γ levels (624 mel; Table 6 donor): 57693 pg/mL; proliferation ([3H]-thymidine incorporation) [2]: proliferate in response to co-culture with SSX2+/HLA-A2+ target cells; interferon-γ levels (Lau 149 mel; Table 5 donor): 270 pg/mL; interferon-γ levels (Lau 149 mel; Table 6 donor): 142 pg/mL; interferon-γ levels ([3]; Table 5 donor): 327 pg/mL; interferon-γ levels ([3]; Table 6 donor): 554 pg/mL; interferon-γ levels (293-A2; Table 5 donor): 802 pg/mL; interferon-γ levels (293-A2; Table 6 donor): 1005 pg/mL; interferon-γ levels (938-A2 mel; Table 5 donor): 51092 pg/mL; interferon-γ levels (938-A2 mel; Table 6 donor): 40047 pg/mL; interferon-γ levels (T331A mel; Table 5 donor): 30 pg/mL; interferon-γ levels (T331A mel; Table 6 donor): 38 pg/mL; interferon-γ levels (U251 Glioma; Table 5 donor): 19027 pg/mL; interferon-γ levels (U251 Glioma; Table 6 donor): 20027 pg/mL |
